Measured values published in US20180237480A1 (UNIVERSITY OF EDINBURGH, published 2018).

T1: bovine fibrinogen (bovine, UniProt P02672 20-615; P02676 1-468; P12799 25-444)
T1 construct: The three chains are general knowledge about fibrinogen; also called bovine Fg
T1 sequence 1: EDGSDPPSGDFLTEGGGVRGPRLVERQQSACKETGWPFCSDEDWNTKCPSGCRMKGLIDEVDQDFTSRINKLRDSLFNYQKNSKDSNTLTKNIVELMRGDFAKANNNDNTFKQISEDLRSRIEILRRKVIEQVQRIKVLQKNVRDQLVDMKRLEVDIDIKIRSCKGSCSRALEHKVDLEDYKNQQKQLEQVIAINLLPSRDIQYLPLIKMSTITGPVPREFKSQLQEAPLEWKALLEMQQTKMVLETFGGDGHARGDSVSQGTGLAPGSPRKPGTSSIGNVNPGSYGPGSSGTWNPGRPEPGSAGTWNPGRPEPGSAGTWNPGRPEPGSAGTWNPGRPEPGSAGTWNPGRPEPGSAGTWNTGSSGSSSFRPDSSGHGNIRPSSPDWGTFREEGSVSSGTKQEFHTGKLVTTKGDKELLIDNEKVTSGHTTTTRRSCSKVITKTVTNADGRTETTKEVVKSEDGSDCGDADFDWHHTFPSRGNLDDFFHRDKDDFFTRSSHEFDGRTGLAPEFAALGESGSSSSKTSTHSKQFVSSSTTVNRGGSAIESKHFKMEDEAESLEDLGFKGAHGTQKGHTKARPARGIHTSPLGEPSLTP
T1 sequence 2: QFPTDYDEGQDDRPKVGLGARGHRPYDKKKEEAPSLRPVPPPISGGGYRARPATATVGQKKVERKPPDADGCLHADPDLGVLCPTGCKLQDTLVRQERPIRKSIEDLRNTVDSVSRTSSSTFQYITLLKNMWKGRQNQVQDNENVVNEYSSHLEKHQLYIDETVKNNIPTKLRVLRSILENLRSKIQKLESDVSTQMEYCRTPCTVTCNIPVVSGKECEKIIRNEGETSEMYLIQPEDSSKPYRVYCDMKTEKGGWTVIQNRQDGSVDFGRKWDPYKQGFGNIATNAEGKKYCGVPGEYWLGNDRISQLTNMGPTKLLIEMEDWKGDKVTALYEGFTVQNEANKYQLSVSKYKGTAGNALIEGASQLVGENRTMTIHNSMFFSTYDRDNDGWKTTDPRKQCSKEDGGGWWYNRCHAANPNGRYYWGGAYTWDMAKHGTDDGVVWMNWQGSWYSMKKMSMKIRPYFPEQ
T1 sequence 3: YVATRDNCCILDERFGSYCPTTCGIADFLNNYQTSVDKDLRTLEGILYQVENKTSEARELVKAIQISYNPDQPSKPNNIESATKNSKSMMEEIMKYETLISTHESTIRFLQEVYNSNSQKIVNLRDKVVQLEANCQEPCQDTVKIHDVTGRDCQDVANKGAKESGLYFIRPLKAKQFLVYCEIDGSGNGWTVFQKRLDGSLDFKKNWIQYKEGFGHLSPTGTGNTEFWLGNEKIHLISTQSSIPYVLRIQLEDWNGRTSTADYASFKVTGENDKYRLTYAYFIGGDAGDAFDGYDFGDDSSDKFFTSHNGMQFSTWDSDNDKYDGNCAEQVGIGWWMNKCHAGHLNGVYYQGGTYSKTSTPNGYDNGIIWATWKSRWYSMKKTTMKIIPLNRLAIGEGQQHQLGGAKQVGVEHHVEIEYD

T2: human fibrinogen (human, UniProt P02671 20-629; P02675 31-491; P02679 27-437)
T2 construct: The three chains are general knowledge about fibrinogen; also called human Fg
T2 sequence 1: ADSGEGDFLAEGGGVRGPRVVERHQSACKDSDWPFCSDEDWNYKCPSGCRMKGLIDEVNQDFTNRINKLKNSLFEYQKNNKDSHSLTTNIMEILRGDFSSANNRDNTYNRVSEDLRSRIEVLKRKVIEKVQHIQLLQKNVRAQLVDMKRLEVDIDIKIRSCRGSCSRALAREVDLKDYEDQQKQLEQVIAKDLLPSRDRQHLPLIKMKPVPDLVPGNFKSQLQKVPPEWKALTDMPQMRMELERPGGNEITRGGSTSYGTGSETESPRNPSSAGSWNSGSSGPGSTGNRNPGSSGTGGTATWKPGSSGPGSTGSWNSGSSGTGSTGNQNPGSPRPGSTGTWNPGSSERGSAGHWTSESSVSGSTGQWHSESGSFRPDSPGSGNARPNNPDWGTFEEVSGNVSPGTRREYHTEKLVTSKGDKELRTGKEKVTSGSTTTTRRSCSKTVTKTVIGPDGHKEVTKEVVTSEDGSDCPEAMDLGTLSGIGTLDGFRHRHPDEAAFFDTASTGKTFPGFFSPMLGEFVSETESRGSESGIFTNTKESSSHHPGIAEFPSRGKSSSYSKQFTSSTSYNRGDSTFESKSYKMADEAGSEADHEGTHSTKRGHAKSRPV
T2 sequence 2: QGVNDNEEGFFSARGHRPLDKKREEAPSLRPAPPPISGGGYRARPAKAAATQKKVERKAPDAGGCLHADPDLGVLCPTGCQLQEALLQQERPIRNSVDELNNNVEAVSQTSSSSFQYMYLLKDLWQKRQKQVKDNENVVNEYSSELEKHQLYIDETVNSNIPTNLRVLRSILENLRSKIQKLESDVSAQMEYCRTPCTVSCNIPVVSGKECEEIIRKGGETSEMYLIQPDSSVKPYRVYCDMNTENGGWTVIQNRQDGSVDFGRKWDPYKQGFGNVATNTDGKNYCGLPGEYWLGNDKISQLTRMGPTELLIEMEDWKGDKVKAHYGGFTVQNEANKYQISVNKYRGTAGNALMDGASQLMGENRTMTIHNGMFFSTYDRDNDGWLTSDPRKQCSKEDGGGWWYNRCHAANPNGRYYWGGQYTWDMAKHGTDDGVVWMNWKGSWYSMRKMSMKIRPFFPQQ
T2 sequence 3: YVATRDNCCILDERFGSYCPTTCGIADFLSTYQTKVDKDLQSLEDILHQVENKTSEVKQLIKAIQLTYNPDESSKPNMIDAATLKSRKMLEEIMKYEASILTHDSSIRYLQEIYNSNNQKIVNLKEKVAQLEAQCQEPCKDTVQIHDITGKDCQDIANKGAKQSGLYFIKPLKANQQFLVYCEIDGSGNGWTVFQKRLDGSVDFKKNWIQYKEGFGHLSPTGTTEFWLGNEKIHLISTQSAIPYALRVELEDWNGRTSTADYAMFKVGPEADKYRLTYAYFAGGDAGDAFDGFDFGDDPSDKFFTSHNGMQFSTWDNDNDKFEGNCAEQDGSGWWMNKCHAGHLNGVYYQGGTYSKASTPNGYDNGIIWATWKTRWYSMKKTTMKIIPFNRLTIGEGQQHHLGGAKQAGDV

T3: recombinant mouse cytokeratin 10 (mouse, UniProt P02535 454-570)
T3 construct: also called CK10; recombinant CK10
T3 sequence: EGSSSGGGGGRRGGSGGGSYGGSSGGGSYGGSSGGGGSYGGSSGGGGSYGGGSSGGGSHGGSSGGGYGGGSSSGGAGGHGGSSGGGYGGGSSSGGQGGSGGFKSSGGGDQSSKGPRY


What was measured:
Assay in all cases: solid phase adherence assay, L. lactis on coated plates, absorbance 590 nm
bovine fibrinogen = biological target: T1, bovine fibrinogen
human fibrinogen = biological target: T2, human fibrinogen
[1] = biological target: T3, recombinant mouse cytokeratin 10

Row | Binder | binding result (bovine fibrinogen) | binding result (human fibrinogen) | binding result [1]
1 | SpsL of S. pseudintermedius ED99, full-length, expressed on L. lactis MG1363 (pOri23) (other, also called L. lactis expressing SpsL; putative MSCRAMM SpsL) NEDVTETTGRNSVTTQASEQHLQVEAVPQEGNNVNVSSVKVPTNTATQAQEDVASVSDVKAHADDALQVQESSHTDGVSSEFKQETAYANPQTAETVKPNSEAVHQSEYEDKQKPVSSSRKEDETMLQQQQVEAKNVVSAEEVSKEENTQVMQSPQDVEQHVGGKDISNEVVVDRSDIKGFNSETTIRPHQGQGGRLNYQLKFPSNVKPGDQFTIKLSDNINTHGVSVERTAPRIMAKNTEGATDVIAEGLVLEDGKTIVYTFKDYVNGKQNLTAELSVSYFVSPEKVLTTGTQTFTTMIGNHSTQSNIDVYYDNSHYVDGRISQVNKKEAKFQQIAYINPNGYLNGRGTIAVNGEVVSGTTKDLMQPTVRVYQYKGQGVPPESITIDPNMWEEISINDTMVRKYDGGYSLNLDTSKNQKYAIYYEGAYDAQADTLLYRTYIQSLNSYYPFSYQKMNGVKFYENSASGSGELKPKPPEQPKPEPEIQADVVDIIEDSHVIDIGWNTAVGEESGANQGPQEEITENHDIEVIEENNLVEMTEDTAVGEESGANQGPQEEITENHDIEVIEENNLVEMTEDTALEEESGANQGPQEEITENHDIEVIEENNLVEMTEDTALEEESGANQGPQEEITENHDIEVIEENNLVEMTEDTAVGEESGANQGPQEEITENHDIEVIEENNLVEMTEDTAVGEESGANQGPQEEITENHDIEVIEENNLVEMTEDTALEEESGANQGPQEEITENHNIEVIEENNLVEMTEDTAVGEESGANPGPQEEVTENQPQQEEIMENQEVEKKGDSNLVESTKTPKAEESVSVQPTLEDKNTKNHVNTVVVNTKVSEVKEKDPHHTKALPDTGTTSRSHSMMIPLLLVAGSVVLLRRKKKHSKVN | no binding (tested: 1 µg Fg coated per well) | no binding (tested: 1 µg Fg coated per well) | no binding (tested: 1 µg CK10 coated per well)
2 | SpsO of S. pseudintermedius ED99, full-length, expressed on L. lactis MG1363 (pOri23) (other, also called L. lactis expressing SpsO; putative MSCRAMM SpsO) SVKEGQQSINSSEKESADPTVVDLISKKETNLDGLDVSREETTKVPINENKRGEEQSISDKAITEKADTPVSNLSSKEVEEQGVSDKAITEKADTPVTNLSSKEAKEQGASDRVITEKADTPVSNLSSKEAKEQGASDRVITEKADTPVSNLSSKEVEEQGVSDKAIEKIADASATDLSSKEEVEQDISTQGKVKSKEAVQVESSQLQNLNSEINAEPNEIKAIDRSSILPLNLNDEENNKKVNKGTRVPEATLRNASNNQLNTRMRSVSLFRVARLTEINRNVNDKVKVSDIDIAIAPPHTNPKTGKEEFWATSSSVLKLKASYELDNSISKGDQFTIQFGQNIRPGGLNLPRPYNFLYDKDKKLVATGRYNKESNTITYTFTDYVDKHQNIKGSFEMNAFSRKENATTDKTAYPMDVTIANQKYSENIIVDYGNKKNAAIISSTEYIDLDGSRKMTTYINQNGSKNSIYRADMQIDLNGYKFDPSKNNFKIYEVENSSDFVDSFSPDVSKLRDVTSQFNIQYTNNNTMAKVDFGTNLWRGKKYIIQQVANIDDSKLVKNASINYTLNKMDFNNKRTVETHNNTYSTVKDKSTALGDVQESQSISESQSVSESESLSESQSISESESLSESQSISESESLSESQSISESESLSESQSISESESLSESQSISESESLSESQSISESESLSESQSISESESLSESQSISESESLSESQSISESESLSESQSISESESLSESQSISESESLSESQSISESESLSESQSISESESLSESQSISESESLSESQSISESESLSESQSISESESLSESQSISESESLSESQSISESESLSESQSISESESLSESQSISESESLSESQSISESESLSESQSISESESLSESQSISESESLSESQSISESESLSESQSISESESLSESQSISESESLSESQSISESESLSESQSISESESLSESQSISESESLSESQSVSESESLSESQSISESESLSESQSISESESLSESQSISESESLSESQSISESESLSESQSISESESLSESQSISESESLSESQSISESESLSESQSISESESLSESQSISESESLSESQSISESESLSESQSISESESLSESQSISESESLSESQSISESESLSESQSISESESLSESQSVSESESLSESQSISESESLSESQSISESESLSESQSISESESLSESQSISESESLSESQSISESESLSESQSISESESLSESQSISESESLSESQSVSESESLSESQSISESESLSESQSISESESLSESQSISESESLSESQSISESESLSESQSISESESLSESQSISESESLSESQSISESESLSESQSISESESLSESQSISESESLSESQSISESESLSESQSISESESLSESQSISESESLSESQSISESESLSESQSISESESLSESQSISESESLSESQSISESESLSESQSISESESLSESQSISESESLSESQSISESESLSESQSISERESLSESQSISESESLSESQSISESESLSESQSISESESLSESQSISESESLSESQSISESESLSESQSISESESLSESQSISESESLSESQSISESESLSESQSISESESLSESQSISESESLSESQSVSESESLSESQSISESESLSESQSISESESLSESQSISESESLSESQSISESESLSESQSISESESLSESQSISESESLSESQSISESESLSESQSISESESLSESQSISESESLSESQSISESESLSESQSISESESKSLPNTGTGEKISNYPGILGGLLSILGISLLKRKDREKKLGQKSNK | no binding (tested: 1 µg Fg coated per well) | no binding (tested: 1 µg Fg coated per well) | no binding (tested: 1 µg CK10 coated per well)
